# Measurements taken from patent US7390643B2, “Geranyl diphosphate synthase molecules, and nucleic acid molecules encoding same” (Washington State University Research Foundation, priority 2002, dated 2008).
# Entries after “also recorded” stand apart in the source; their conditions may differ.
# What was measured:
# [1] = test system: recombinant GPP synthases from grand fir; assay: Kinetic evaluation, standard prenyltransferase assay with purified recombinant His6-tagged GPP synthases; format: biochemical, Abies grandis
# Description: Molecular weight determination and kinetic evaluation. The molecular weight of GPP synthase was determined by gel filtration chromatography on a calibrated XK 16/70 column of Superdex 200 (Amersham Biosciences) as previously described (C. Burke and R. Croteau, J. Biol. Chem. 277:3141-3149, 2002). For kinetic evaluation, the standard prenyltransferase assay was performed (C. Burke and R. Croteau, J. Biol. Chem. 277:3141-3149, 2002) but the reaction was terminated after 4 min. to ensure linearity in the rate measurements. For preparative incubations, the reaction time was extended to 8 min., and all assays contained from 0.25 to 1.0 μg of purified protein.
# Kinetic characterization of the GPP synthases (SEQ ID NOS:12, 16, and 20). To compare substrate binding behavior and turnover rates of these grand fir GPP synthases (SEQ ID NOS:12, 16, and 20) to those of the Mentha synthase, kinetic constants were determined (Table 1).
# [2] = test system: presumptive prenyltransferases (GPP synthases and GGPP synthase) from grand fir; assay: Product determination and co-substrate selectivity assay ([4-14C]IPP plus allylic co-substrate, MgCl2; radio-GC of hydrolysed products); format: biochemical, Abies grandis; details: for product formed: radio-GC; for rate with GPP as allylic co-substrate in the production of FPP, relative to the rate with DMAPP: standard assay conditions
# Description: Protein purification and product determination. The affinity-based purification procedure for His-tagged proteins has been described previously, as has the standard purification protocol for the corresponding non-tagged proteins (C. Burke and R. Croteau, J. Biol. Chem.277:3141-3149, 2002). The partial purification procedure for the native GPP synthase from A. grandis has also been reported previously (D. Tholl et al., Arch. Biochem. Biophys. 386:233-242, 2001). Procedures for polyclonal antibody preparation were as described previously (C. C. Burke et al., Proc. Natl. Acad. Sci. USA 96:13062-13067, 1999), in this case using the SDS-PAGE purified AgGPPS3 protein (SEQ ID NO:7) as antigen. The assay procedures and methods for product analysis were similar to those previously described (C. Burke and R. Croteau, J. Biol. Chem. 277:3141-3149, 2002), except that for radio-GC a Raga (Raytest) radio-detector connected in-line to a Series 600 (Gow-Mac) chromatograph was employed with a 5% phenyl polysiloxane (ZB-5; Phenomenex) capillary column under hydrogen gas flow (70° C. for 5 min. followed by an 8° C. per min. ramp to 240° C. for 5 min).
# As might be expected based on prior experience, the full-length (preprotein) versions of these enzymes (SEQ ID NOS:3, 5, 7 and 22) were not efficiently expressed in soluble form and the bulk of the protein generated was in inclusion bodies. However, the truncated versions of these enzymes with the appended C-terminal His6-tag (SEQ ID NOS:12, 16, 20 and 26) readily afforded soluble protein that was affinity purified to >90% in amounts up to 6 mg/L. To define the function of these presumptive prenyltransferases, assays were conducted with the purified proteins (SEQ ID NOS:12, 16, 20 and 26) using [4-^14C]IPP and DMAPP as co-substrates and MgCl2 as cofactor. The resulting products were enzymatically hydrolyzed to the corresponding alcohols and analyzed by radio-GC. […] His-tagged AgGPPS1 (SEQ ID NO:16) and AgGPPS3 (SEQ ID NO:20) were able to accept GPP as the allylic co-substrate (110% the rate with DMAPP under standard assay conditions) in the production of FPP, and His-tagged AgGPPS3 (SEQ ID NO:20) could also efficiently utilize FPP as allylic co-substrate in the formation of GGPP (at about 50% the rate with DMAPP as co-substrate).
# [3] = [4-14C]IPP and DMAPP as co-substrates, MgCl2 as cofactor
Molecule,KM(DMAPP) compared with the Mentha enzyme [1],turnover rate compared with AgGPPS3 [1],"product formed [2, 3]","rate with GPP as allylic co-substrate in the production of FPP, relative to the rate with DMAPP [2] [%]","rate with FPP as allylic co-substrate in the formation of GGPP, relative to the rate with DMAPP [2]","farnesyl diphosphate produced [2, 3]",turnover rate compared with the heterotetrameric Mentha GPP synthase [1],allylic co-substrate utilised [2]
"AgGPPS1: recombinant geranyl diphosphate synthase from Grand fir (Abies grandis), truncated, His6-tagged, SEQ ID NO:16 (protein, His6 tag; Abies Grandis) MFDFKEYLHSKAISVNEALERAVPLRYPEKIHEAMRYSLLAGGKRIRPILTIAACELVGGSEELAMPTACAMEMIHTMSLIHDDLPSMDNDDLRRGKLTNHKVFGEGTAVLAGDALLSFAFEHIAVSTRKTVASHRVLRVVSELGKAIGSQGVAGGQVADITSEGDPSVGLETLEWIHIHKTAVLLECAVVSGAIIGGASENEIERTGRYARCVGLLFQVVDDILDVTRSSEELGKTAGKDLVSDKATYPKLMGLEKAKEFADELLDRAKEELSCFNPAKAAPLLGLADYIALRQNLEHHHHHH",two-fold higher,four fold higher,geranyl diphosphate as the major product,110,,,,
"GGPPS: recombinant geranylgeranyl diphosphate synthase from grand fir, truncated, His6-tagged, SEQ ID NO:26 (protein, His6 tag; Abies Grandis) MFDFKEYLRSKAMAVNEALDRAVPLRYPERIHEAMRYSLLAGGKRVRPVLCISACELVGGTEEVAMPTACAMEMIHTMSLIHDDLPCMDNDDFRRGKPTNHKVFGEGTAILAGDALLSFAFEHIAVSTSKSVGTDRILRVVSELGRTIGSQGLVGGQVADITSEGDASVDLDTLEWIHIHKTAVLLECSVMCGAIISGASDNEIERIQRYARSVGLLFQVVDDILDVTKSSKELGKTAGKDLISDKATYPKLMGLEKAKQFASDLLIRAKEDLSCFDPMKAAPLLGLADYIAFRQNLEHHHHHH",,,predominately geranylgeranyl diphosphate as product with trace amounts of geranyl diphosphate,,,,,
"AgGPPS3: recombinant geranyl diphosphate synthase from Grand fir (Abies grandis), truncated, His6-tagged, SEQ ID NO:20 (protein, His6 tag; Abies Grandis) MFDFNKYMLSKAMAVTEALDKAIPHSYPQKIHESMRYSLLAGGKRVRPVLCIAACELVGGREELAMPTACAMEMIHTMSLIHDDLPCMDNDDLRRGKPTNHKVFGQDTALLAGDALHAFAFEHIVAFTSKSVGSDGILRAVTELARATGPQGIMGGQIVDIASERDAFVDLQTLEWIHIHKTAVLFECATVCGAIIGGASGDEIERIRRFARYLGLLFQVVDDILDVTKSSEDLGKTAGKDLVSDKATYPKLMGLEKAKGFSLELLNKAKEELSCFDPMKAAPLFGLADYMALRQNLEHHHHHH",,,geranyl diphosphate as the major product,110,about 50%,about 30%,,
"AgGPPS2: recombinant geranyl diphosphate synthase from Grand fir (Abies grandis), truncated, His6-tagged, SEQ ID NO:12 (protein, His6 tag; Abies Grandis) MFDFNKYMDSKAMTVNEALNKAIPLRYPQKIYESMRYSLLAGGKRVRPVLCIAACELVGGTEELAIPTACAIEMIHTMSLMHDDLPCIDNDDLRRGKPTNHKIFGEDTAVTAGNALHSYAFEHIAVSTSKTVGADRILRMVSELGRATGSEGVMGGQMVDIASEGDPSIDLQTLEWIHIHKTAMLLECSVVCGAIIGGASEIVIERARRYARCVGLLFQVVDDILDVTKSSDELGKTAGKDLISDKATYPKLMGLEKAKEFSDELLNRAKGELSCFDPVKAAPLLGLADYVAFRQNLEHHHHHH",,four fold higher,geranyl diphosphate as the major product; also recorded: only GPP,,,,three-fold lower,only DMAPP
